For experiment [1], the target named is Poly-His tagged murine FAM72A (mouse) (UniProt Q8BFZ8). Description: BLI.
The target is the same in experiment [2]. As to the kind of experiment: BLI. This is another data set of the same source.

Where two headings read alike, the source gives them in different places.

Sequence of UniProt Q8BFZ8 (Q8BFZ8 whole entry): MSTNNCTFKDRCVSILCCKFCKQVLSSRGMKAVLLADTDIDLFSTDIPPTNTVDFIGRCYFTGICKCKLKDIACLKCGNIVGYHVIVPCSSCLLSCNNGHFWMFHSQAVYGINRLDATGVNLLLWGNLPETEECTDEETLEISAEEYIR

With “murine uracil-DNA glycosylase, nuclear form (mUNG2), untagged (enzyme)”, in experiment [1], the equilibrium dissociation constant (Kd) was determined as 600 nM, the koff came out at 0.023 s⁻¹ and the kon stood at 43000 M⁻¹ s⁻¹.

As to “synthetic polypeptide containing the first 25 aa of mUNG2, C-terminal biotin”, the Kd in experiment [2] is 188 nM. Besides, in experiment [1], the Kd stood at 1.9 nM and the koff is 0.037 s⁻¹.

(Values after paper PMC10996437.)
